From paper PMC10849721 (bioRxiv, 2024)

B1: Kv2.2 (natural protein)
chain: MAEKAPPGLNRKTSRSTLSLPPEPVDIIRSKTCSRRVKINVGGLNHEVLWRTLDRLPRTRLGKLRDCNTHESLLEVCDDYNLNENEYFFDRHPGAFTSILNFYRTGKLHMMEEMCALSFGQELDYWGIDEIYLESCCQARYHQKKEQMNEELRREAETMREREGEEFDNTCCPEKRKKLWDLLEKPNSSVAAKILAIVSILFIVLSTIALSLNTLPELQENDEFGQPSDNRKLAHVEAVCIAWFTMEYLLRFLSSPNKWKFFKGPLNVIDLLAILPYYVTIFLTESNKSVLQFQNVRRVVQIFRIMRILRILKLARHSTGLQSLGFTLRRSYNELGLLILFLAMGIMIFSSLVFFAEKDEDATKFTSIPASFWWATITMTTVGYGDIYPKTLLGKIVGGLCCIAGVLVIALPIPIIVNNFSEFYKEQKRQEKAIKRREALERAKRNGSIVSMNLKDAFARSMELIDVAVEKAGESANTKDSVDDNHLSPSRWKWARKALSETSSNKSYENKYQEVSQNDSHEHLNNTSSSSPQHLSAQKLEMLYNEITKTQPHSHPNPDCQEQPERPCVYEEEIEMEEVICPQEQLAVAQTEVIVDMKSTSSIDSFTSCATDFTETERSPLPPPSASHLQMKFPTDLPGTDEHQRARAPPFLTLSRDKGPAAREAAVDYAPIDITVNLDAGASHGPLQPDSASDSPKSSLKGSNPLKSRSLKVNFQENRASAPQTPPSTARPLPVTTADFPLTTPQHMSTILLEEALPQGQPPLLEADDSAHCQGPSKGFSPRFPKQKLFPFSSRERRSFTEIDTGEDEDFLDLQRSRPDKQADPSPNCLADKPGDARDSLREEGCVGSSSPQNTDHNCRQDIYQAVGEVKKDSSQEGYKMENHLFAPEIHSNPGDTGHCPTRETSM
B2: Kv5.1 (natural protein)
chain: MDASAEQSLPEPGSQDSVAGEDIEIVVNVGGVRQVLYGDLLSQYPETRLAELINCLAGGYDTIFSLCDDYDPGKREFYFDRDPDAFKCVIEVYYFGEVHMKKGICPICFKNEMDFWKVDLKFLDDCCKSHLSEKREELEEIARRVQLILDDLGVDAAEGRWRRCQKCVWKFLEKPESSCPARVVAVLSFLLILVSSVVMCMGTIPELQVVDSEGNRVEHPTLENVETACIGWFTLEYLLRLFSSPNKLHFALSFMNIVDVLAILPFYVSLTLTHLGARMMELTNVQQAVQALRIMRIARIFKLARHSSGLQTLTYALKRSFKELGLLLMYLAVGIFVFSALGYTMEQSHPETLFKSIPQSFWWAIITMTTVGYGDIYPKTTLGKLNAAISFLCGVIAIALPIHPIINNFVRYYNKQRVLETAAKHELELMELNSSSAEGKPGGSRSDLDTLPPEPAAREGPSWGSRLKLSHSDTFIPLLTEEKHHRTRLQSCK

Columns and labels:
Kv5.1 = molecular target: B2; assay: co-IP
Kv2.2 = molecular target: B1; assay: co-IP

Binder	percent co-IPed, relative to the subunit's own IP (Kv5.1) [%]	percent co-IPed, relative to the subunit's own IP (Kv2.2) [%]
B1	7.4	–
B2	–	31
